The record followed here is publication PMC8865451 (Journal of Virology, 2021).

The assay deals with hyper-IL-6 (HIL-6). The experiment in a line: SPR.
Chain of hyper-IL-6 (HIL-6) (A0N0L4 whole entry): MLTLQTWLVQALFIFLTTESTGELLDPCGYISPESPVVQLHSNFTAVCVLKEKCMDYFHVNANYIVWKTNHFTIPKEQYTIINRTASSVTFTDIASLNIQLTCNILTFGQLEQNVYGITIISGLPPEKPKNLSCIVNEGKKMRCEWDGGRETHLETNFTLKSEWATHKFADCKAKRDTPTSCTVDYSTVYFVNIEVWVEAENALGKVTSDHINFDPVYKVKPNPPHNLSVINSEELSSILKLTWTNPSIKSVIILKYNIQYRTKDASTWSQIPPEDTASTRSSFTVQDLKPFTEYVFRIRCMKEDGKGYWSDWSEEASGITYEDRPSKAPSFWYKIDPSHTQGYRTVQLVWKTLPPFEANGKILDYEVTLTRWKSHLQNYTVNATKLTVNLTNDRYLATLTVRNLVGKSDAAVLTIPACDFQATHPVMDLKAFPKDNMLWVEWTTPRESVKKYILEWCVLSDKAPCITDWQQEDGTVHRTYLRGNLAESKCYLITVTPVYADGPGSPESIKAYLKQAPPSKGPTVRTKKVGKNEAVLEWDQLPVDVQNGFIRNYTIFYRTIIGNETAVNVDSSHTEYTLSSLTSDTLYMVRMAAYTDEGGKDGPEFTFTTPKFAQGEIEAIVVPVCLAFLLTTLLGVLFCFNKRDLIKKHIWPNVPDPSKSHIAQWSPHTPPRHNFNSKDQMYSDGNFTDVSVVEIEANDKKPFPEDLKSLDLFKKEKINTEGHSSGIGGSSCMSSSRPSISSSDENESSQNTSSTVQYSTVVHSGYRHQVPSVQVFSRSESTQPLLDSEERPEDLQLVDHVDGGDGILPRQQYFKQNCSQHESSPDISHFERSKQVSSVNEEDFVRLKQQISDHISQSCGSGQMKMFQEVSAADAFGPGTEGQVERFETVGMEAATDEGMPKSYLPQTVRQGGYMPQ

B1: c19s130Fc (Fc fusion)
chain: ELLDPCGYISPESPVVQLHSNFTAVCVLKEKCMDYFHVNANYIVWKTNHFTIPKEQYTIINRTASSVTFTDIASLNIQLTCNILTFGQLEQNVYGITIISGLPPEKPKNLSCIVNEGKKMRCEWDGGRETHLETNFTLKSEWATHKFADCKAKRDTPTSCTVDYSTVYFVNIEVWVEAENALGKVTSDHINFDPVYKVKPNPPHNLSVINSEELSSILKLTWTNPSIKSVIILKYNIQYRTKDASTWSQIPPEDTASTRSSFTVQDLKPFTEYVFRIRCMKEDGKGYWSDWSEEASGITYEDDVQFVESGGGSVHAGGSLRLNCATSGYIYSTYCMGWFRQAPGKEREGVAHIYTNSGRTYYADSVKGRFTISQDNAKNTVYLQMNSLKPEDTAIYYCAARPSIRCASFSATEYKDWGQGTQVTVSSTGGGGSGGGGSGGGGTGQVQLQESGGGLVQAGGSLRLSCAASGRTFSEYAMGWFRQAPGKEREFVATISWSGGSTYYTDSVKGRFTISRDNAKNTVYLQMNSLKPDDTAVYYCAAAGLGTVVSEWDYDYDYWGQGTQVTVSS
B1 came in with a dissociation constant (Kd) of 0.055 nM and a koff of 7.1e-05 s⁻¹.
